Measured values reported in the supplement of paper PMC10899765.

What was measured:
Conditions in all cases: 20 nM; 72 h
MCF10A [1] = experiment: percent viability (nuclei count relative to siNT); higher = more viable cells
Description: (§1)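 After 72 h, cells were fixed and stained with Hoechst and anti-fibrillarin, and nucleoli per nucleus were counted with CellProfiler. Values are plate-adjusted percent effect for the one-nucleolus and 5+ nucleoli phenotypes, normalised to siNT (0%) and to the positive controls siNOL11 or siKIF11 (100%), as the mean of biological triplicates. Percent viability is the nuclei count relative to siNT.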

MCF10A [2] = experiment: 5+ nucleoli phenotype percent effect (relative to siNT 0% and siKIF11 100%); higher = more cells with five or more nucleoli
Description: as §1

MCF10A [3] = experiment: one-nucleolus phenotype percent effect (relative to siNT 0% and siNOL11 100%); higher = more cells with one nucleolus (ribosome biogenesis inhibition)
Description: as §1

Sequence	percent viability (MCF10A [1]) [%]	5+ nucleoli phenotype percent effect (MCF10A [2]) [%]	one-nucleolus phenotype percent effect (MCF10A [3]) [%]
AAAGACCGUGACUACUUUUGCA [hsa-miR-548ao-3p]	80.6	-18.1	18.2
ACCAGCCUGUGUCCACCUCCAG [hsa-miR-6849-3p]	46	-31	13.6
UAACAGUCUACAGCCAUGGUCG [hsa-miR-132-3p]	112	-13.6	-5.13
UAUGGGGCUUCUGUAGAGAUUUC [hsa-miR-3675-5p]	37.2	-9.76	22.6
AUCAGGGCUUGUGGAAUGGGAAG [hsa-miR-3127-5p]	18.4	-23.4	49.5
AUGAGCGACUGUGCCUGACC [hsa-miR-5708]	47.3	-33	21.4
AACCAGCACCCCAACUUUGGAC [hsa-miR-634]	4.33	-57.2	-35.9
UGAGCCUCUCCUUCCCUCCAG [hsa-miR-6823-3p]	31.2	12.9	-2.85
UUGGCUGGUCUCUGCUCCGCAG [hsa-miR-6842-3p]	24.9	-0.515	19.7
UUCCAGCCCUUCUAAUGGUAGG [hsa-miR-6512-3p]	33.8	-33.4	39.8
AGUGCCUGCUAUGUGCCAGGCA [hsa-miR-1271-3p]	39.3	4.16	-6.99
CCAGUGUGGCUCAGCGAG [hsa-miR-4302]	28.8	-22.9	18.9
UCGACAGCACGACACUGCCUUC [hsa-miR-196b-3p]	65.2	5.68	2.46
UGGUUCUCUUGUGGCUCAAGCGU [hsa-miR-597-3p]	22.4	-23	44.1
UCUGAAAGAGCAGUUGGUGUU [hsa-miR-4766-5p]	56.2	2.75	-18.9
GCGGUGGGGCCGGAGGGGCGU [hsa-miR-6786-5p]	96.7	31.9	-24.9
GGGUGGGGAUUUGUUGCAUUAC [hsa-miR-92a-2-5p]	42.2	-28.2	28.3
UCCCUCUCCCACCCCUUGCAG [hsa-miR-6892-3p]	52.2	42.4	-29
AAGCCCUUACCCCAAAAAGUAU [hsa-miR-129-1-3p]	54.9	-37.4	23.6
AUAGUGGGAAGCUGGCAGAUUC [hsa-miR-4727-3p]	16.6	-30.8	52.3

Sequence	percent viability (MCF10A [1]) [%]	5+ nucleoli phenotype percent effect (MCF10A [2]) [%]	one-nucleolus phenotype percent effect (MCF10A [3]) [%]
ACCCCUCGUUUCUUCCCCCAG [hsa-miR-6795-3p]	101	14.8	-18.5
UUGUCUGCUGAGUUUCC [hsa-miR-4288]	31.9	-15.9	27.6
UGAAGCUCUAAGGUUCCGCCUGC [hsa-miR-3928-5p]	23.8	-19.2	20.8
UUAAUUUUUUGUUUCGGUCACU [hsa-miR-4775]	88.3	21.1	-18.6
UAGUGAGUUAGAGAUGCAGAGCC [hsa-miR-3174]	38.1	-38.2	12.5
UUGAGGAGACAUGGUGGGGGCC [hsa-miR-4689]	103	2.8	12.3
GUCCCUGAGUGUAUGUGGUG [hsa-miR-670]	47.5	48	-27.4
UGGGGGAGCCAUGAGAUAAGAGCA [hsa-miR-4723-5p]	43.6	2.14	21.2
CUCCAGAGGGAAGUACUUUCU [hsa-miR-520a-5p]	34.6	-28.3	23.8
AACAUUCAACCUGUCGGUGAGU [hsa-miR-181c-5p]	79	3.6	6.56
AUACUGUGAAUUUCACUGUCACA [hsa-miR-4693-5p]	53.9	-20.3	2.95
CGGGCCGGAGGUCAAGGGCGU [hsa-miR-6781-5p]	46.3	54.4	-2.25
UCAGGUGUGGAAACUGAGGCAG [hsa-miR-3934-5p]	42.8	-10.9	10.5
CUUUGAGCACAUGAGCAGACGGA [hsa-miR-8055]	92.5	-14.2	-6.93
GUGAAGGCCCGGCGGAGA [hsa-miR-6126]	77.8	-28.6	-11.8
ACGGUGCUGGAUGUGGCCUUU [hsa-miR-1250]	25	-44.5	57.9
GAAGGACACUGGUGUCAACGGCU [hsa-miR-8080]	118	19.9	-9.1
UGGUCGACCAGUUGGAAAGUAAU [hsa-miR-412-5p]	46.8	-1.85	13.6
AGUCAUUGGAGGGUUUGAGCAG [hsa-miR-616-3p]	85.2	-20	10.7
UGGGGGCUGGAUGGGGUAGAGU [hsa-miR-6846-5p]	23.9	-0.876	7.84

Sequence	percent viability (MCF10A [1]) [%]	5+ nucleoli phenotype percent effect (MCF10A [2]) [%]	one-nucleolus phenotype percent effect (MCF10A [3]) [%]
UGUUUUGAUAACAGUAAUGU [hsa-miR-2052]	144	5.44	0.685
UUGGGUUUUCUCUUCAAUCCAG [hsa-miR-6839-3p]	22.3	-18.2	14.2
CUGGAUGGCUCCUCCAUGUCU [hsa-miR-432-3p]	16.2	-33.6	62
AAAUUAUUGUACAUCGGAUGAG [hsa-miR-944]	33.3	-36.2	9.85
GUUUGGACAUAGUGUGGCUGG [hsa-miR-7850-5p]	115	49.1	-32.7
CCCCGGGGAGCCCGGCG [hsa-miR-4532]	148	45.2	-24.8
GGGGAGGUGUGCAGGGCUGG [hsa-miR-6799-5p]	93.2	37	-29.7
UAUCGUAUCGUAUUGUAUUGU [hsa-miR-5686]	93.8	39.8	-22.7
GUGGGUAGGGUUUGGGGGAGAGCG [hsa-miR-1229-5p]	67.9	53.7	-23.1
CAGUGCAAGUGUAGAUGCCGA [hsa-miR-3666]	150	66.7	-18.2
AACGCACUUCCCUUUAGAGUGU [hsa-miR-521]	57.9	28.6	-9.21
ACUUUAACAUGGAAGUGCUUUC [hsa-miR-302b-5p]	101	35.7	-20.3
UGGCAGUUACUUUUGCACCAG [hsa-miR-548au-3p]	5.53	-17.4	31.4
AUGAAGCCUUCUCUGCCUUACG [hsa-miR-7843-3p]	37.8	-32.5	15.8
AGAUGUCCAGCCACAAUUCUCG [hsa-miR-2964a-5p]	30.3	-43.9	39.4
ACAGACUUGCUGUGAUGUUCA [hsa-miR-499b-5p]	35.2	-7.28	2.65
ACUCAAACUGUGGGGGCACU [hsa-miR-371a-5p]	79.6	15.8	3.21
AGGAUAGGAAGAAUGAAGUGCU [hsa-miR-5191]	40.6	-7.65	14.1
CGGUGGACUGGAGUGGGUGG [hsa-miR-8071]	9.26	-15.7	22.4
